One molecule from paper PMC7286819, “SIRT7 activates p53 by enhancing PCAF-mediated MDM2 degradation to arrest the cell cycle” (Oncogene, 2020) can be followed below.

The target of the test is T1, Full-length His-PCAF fusion protein (UniProt Q92831 1-832).
T1 construct: PCAF, full length, cDNA cloned into pET-28a; source: E. coli, purified
Description: pull-down; GST or GST-SIRT7 on glutathione-Sepharose 4B beads incubated with 6xHis-tagged PCAF from E. coli at 4 C overnight; washed with TEN buffer (0.5% NP-40, 20 mM Tris pH 7.4, 0.1 mM EDTA, 300 mM NaCl); immunoblot. Conditions: both partners purified. (In general: Immunoblotting shows a protein as a band on a membrane.)

T1 sequence (Q92831 whole entry, the tested form may be a part): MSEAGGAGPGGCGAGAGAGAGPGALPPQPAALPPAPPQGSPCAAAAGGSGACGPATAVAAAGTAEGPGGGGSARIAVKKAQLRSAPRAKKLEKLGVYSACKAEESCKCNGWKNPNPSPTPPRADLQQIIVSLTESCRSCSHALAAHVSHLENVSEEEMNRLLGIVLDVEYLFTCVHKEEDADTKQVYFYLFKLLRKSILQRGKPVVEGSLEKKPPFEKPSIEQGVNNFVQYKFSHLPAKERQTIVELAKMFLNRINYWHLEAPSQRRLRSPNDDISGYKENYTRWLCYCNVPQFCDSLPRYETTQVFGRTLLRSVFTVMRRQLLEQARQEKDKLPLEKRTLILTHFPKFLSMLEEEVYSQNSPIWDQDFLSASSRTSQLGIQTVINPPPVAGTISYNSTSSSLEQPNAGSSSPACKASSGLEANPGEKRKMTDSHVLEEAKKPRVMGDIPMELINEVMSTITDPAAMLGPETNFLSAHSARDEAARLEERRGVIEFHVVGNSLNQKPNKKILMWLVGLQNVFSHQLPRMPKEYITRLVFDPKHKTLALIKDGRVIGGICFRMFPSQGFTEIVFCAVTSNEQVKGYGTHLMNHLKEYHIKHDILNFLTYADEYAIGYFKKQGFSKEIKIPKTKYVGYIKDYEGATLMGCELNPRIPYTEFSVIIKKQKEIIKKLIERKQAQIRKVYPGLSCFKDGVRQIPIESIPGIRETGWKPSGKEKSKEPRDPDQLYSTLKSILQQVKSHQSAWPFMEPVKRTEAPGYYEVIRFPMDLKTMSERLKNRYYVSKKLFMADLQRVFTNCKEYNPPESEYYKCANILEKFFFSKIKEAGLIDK

B1: full-length GST-tagged SIRT7 (natural protein, UniProt Q9NRC8 1-400, looked up)
chain: MAAGGLSRSERKAAERVRRLREEQQRERLRQVSRILRKAAAERSAEEGRLLAESADLVTELQGRSRRREGLKRRQEEVCDDPEELRGKVRELASAVRNAKYLVVYTGAGISTAASIPDYRGPNGVWTLLQKGRSVSAADLSEAEPTLTHMSITRLHEQKLVQHVVSQNCDGLHLRSGLPRTAISELHGNMYIEVCTSCVPNREYVRVFDVTERTALHRHQTGRTCHKCGTQLRDTIVHFGERGTLGQPLNWEAATEAASRADTILCLGSSLKVLKKYPRLWCMTKPPSRRPKLYIVNLQWTPKDDWAALKLHGKCDDVMRLLMAELGLEIPAYSRWQDPIFSLATPLRAGEEGSHSRKSLCRSREEAPPGDRGAPLSSAPILGGWFGRGCTKRTKRKKVT
notes: SIRT7, full length, cDNA cloned into pGEX-4T1; also called GST-SIRT7; full-length (FL) SIRT7; source: E. coli, purified on glutathione-Sepharose 4B beads
B1: the binding result is on record as “binds”.
